How the values were obtained:
fibrin = molecular target: T1, fibrin (Homo sapiens, UniProt P02671+P02675+P02679); details: SOFIA-tPA assay; read-out: KD of tPA-fibrin binding reported by Angles-Cano (1986); cited from earlier work
T1 construct: were incubated on replicate fibrin pads, prepared in microplate wells; purchased Calbiochem (EMD Biosciences, Inc., La Jolla, Calif.)
T1 sequence (P02671 36-629 limits assumed): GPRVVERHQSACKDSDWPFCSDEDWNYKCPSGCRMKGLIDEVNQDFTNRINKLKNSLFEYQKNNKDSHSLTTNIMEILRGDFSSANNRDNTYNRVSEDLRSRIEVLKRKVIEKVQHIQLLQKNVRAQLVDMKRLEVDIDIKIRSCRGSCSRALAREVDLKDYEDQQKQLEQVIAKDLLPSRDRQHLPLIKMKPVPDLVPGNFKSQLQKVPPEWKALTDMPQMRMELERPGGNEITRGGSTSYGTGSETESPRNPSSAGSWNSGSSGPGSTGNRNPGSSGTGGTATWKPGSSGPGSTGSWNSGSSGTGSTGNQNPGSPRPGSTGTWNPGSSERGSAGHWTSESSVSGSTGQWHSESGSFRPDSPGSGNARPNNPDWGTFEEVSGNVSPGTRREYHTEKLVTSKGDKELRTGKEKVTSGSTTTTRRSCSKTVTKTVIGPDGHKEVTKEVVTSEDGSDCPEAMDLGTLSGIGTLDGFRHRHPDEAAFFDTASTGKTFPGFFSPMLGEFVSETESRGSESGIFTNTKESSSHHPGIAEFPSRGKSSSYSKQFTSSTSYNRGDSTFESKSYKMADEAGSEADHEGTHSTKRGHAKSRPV
T1 sequence (P02675 45-491 limits assumed): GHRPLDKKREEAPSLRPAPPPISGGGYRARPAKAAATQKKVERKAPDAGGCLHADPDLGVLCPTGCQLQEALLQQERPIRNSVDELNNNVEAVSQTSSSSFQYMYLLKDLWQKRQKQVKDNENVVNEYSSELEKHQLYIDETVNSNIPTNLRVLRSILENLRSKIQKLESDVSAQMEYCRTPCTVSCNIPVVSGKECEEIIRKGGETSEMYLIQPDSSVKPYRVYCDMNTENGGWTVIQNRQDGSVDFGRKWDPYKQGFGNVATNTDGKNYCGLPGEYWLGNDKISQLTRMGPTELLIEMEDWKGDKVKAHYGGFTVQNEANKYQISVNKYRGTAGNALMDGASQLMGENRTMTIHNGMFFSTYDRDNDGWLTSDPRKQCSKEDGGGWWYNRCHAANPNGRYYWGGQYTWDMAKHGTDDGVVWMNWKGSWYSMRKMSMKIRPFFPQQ
T1 sequence (P02679 27-437 isoform P02679-2 limits assumed): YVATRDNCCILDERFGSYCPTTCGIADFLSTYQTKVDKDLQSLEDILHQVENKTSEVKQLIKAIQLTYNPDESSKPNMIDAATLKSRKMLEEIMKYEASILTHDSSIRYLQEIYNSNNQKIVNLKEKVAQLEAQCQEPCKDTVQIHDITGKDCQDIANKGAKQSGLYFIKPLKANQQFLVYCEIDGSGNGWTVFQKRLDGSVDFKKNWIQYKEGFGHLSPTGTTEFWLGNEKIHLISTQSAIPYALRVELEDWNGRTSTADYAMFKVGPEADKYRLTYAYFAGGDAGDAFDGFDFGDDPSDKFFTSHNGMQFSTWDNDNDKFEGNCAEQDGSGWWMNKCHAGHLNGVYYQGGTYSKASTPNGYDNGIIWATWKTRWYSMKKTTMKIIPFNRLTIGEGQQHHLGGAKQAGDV

[1] = test system: whole porcine blood clots; assay: In vitro thrombolysis, percent clot mass loss; details: 1 MHz CW, 2 W/cm^2, 2 min vs. no ultrasound
Method: Whole porcine blood clots were used to evaluate thrombolysis. Blood was obtained from non-heparinized Yucatan miniswine. The miniswine were 6-8 weeks old and weighed 28.5±6.5 lb. Baseline blood analysis data, including complete blood count, prothrombin time, activated partial thromboplastin time, D-dimer, and fibrinogen were obtained to ensure normal clotting parameters. Whole blood clots were made by aliquoting 1.5 ml fresh porcine blood into 1.3-cm inner diameter vacutainer tubes; the tubes were incubated in a 37° C. water bath for 3 h. The clots were then stored at 4° C. until use, which ensured complete clot maturation and retraction. This type of clot is fairly similar to physiologic venous clots. Most miniswine used in this study were slightly anemic (hematocrit of 27.8±3.0%). Only donors with values of <250 ng/ml for the D-dimer test, <15 s for prothrombin time, <18 s for activated partial thromboplastin time, and <300 mg/dl fibrinogen concentration were considered acceptable. The resulting clots were dark red, cylindrical, and weighed 0.47±0.11 g. All unused clots were discarded after 2 weeks.
Whole porcine blood clots were blotted gently and weighed using an analytical balance. […]
Porcine clots were treated with 1 MHz continuous wave (CW) ultrasound with an intensity of 2 W/cm^2, for 2 min (Sonitron 1000; Rich-Mar). The calculated peak negative acoustic pressure output was 0.12 MPa. […]

Q: Which Kd (fibrin) does the source give for “tPA: Recombinant tissue-plasminogen activator (Activase®, Genentech Inc.), used as the thrombolytic agent [reference compound]” here?
A: 1.4 ± 2 nM

Q: What about the “effect of ultrasound exposure on thrombolysis” value [1] of the same substance?
A: no significant augmentation of thrombolysis

Source: patent publication US9814672B2, “Echogenic vehicle for clinical delivery of plasminogen activator and other fibrin-binding therapeutics to thrombi” (priority 2007, dated 2017)
